{"source": "paper PMC2564605", "about": "(Journal of molecular biology, 2008)", "proteins": {"B1": {"name": "His-tagged aquaporin-9 (natural protein, UniProt P56627 1-295, looked up)", "chain": "MPSEKDGAKKSLMQRLALKSRIAKETLSEFLGTFIMIVLGCSSIAQAVLSRERFGGIITINIGFASAVVMALYVTFGISGGHINPAVSFAMCAFGRMEWFKFPFYVGAQFLGAFVGAATVFGIYYDGLMAFAGGKLLVVGENATAFIFATYPAPFISTPGAFVDQVVSTMFLLLIVFAMFDSRNLGVPRGLEPVVIGLLIIVLSCSLGLNSGCAMNPARDLSPRLFTALAGWGFEVFTVGNNFWWIPVVGPMIGAFLGGLIYILFIQMHHSKLDPDMKAEPSENNLEKHELSVIM", "modifications": "unglycosylated (~32 kDa) and glycosylated (~35 kDa) forms"}}, "biological_target": "the molecule itself", "test": "SDS-PAGE and Western blot"}
{"protein": "B1", "values": [{"measurement": "stoichiometry N", "result": 2}]}
